Test results reported in PMC4682114.
One block for each substance: values may come before it.

Legend:
Histone H1.0 (human) [1] = target: Histone H1.0 (human) (UniProt P07305); experiment: FRET; settings: FRET/PIFE/EMSA: 5 nM nucleosomes, 10 mM Tris-HCl pH 8.0, 130 mM NaCl, 10% glycerol, 0.005% Tween20, 10 min at 20 C, EMSA on 4% polyacrylamide, 0.3x TTE
Histone H1.0 (human) [2] = target: Histone H1.0 (human) (UniProt P07305); experiment: PIFE; settings: AmC6dT at position 43; unlabelled human octamer; FRET/PIFE/EMSA: 5 nM nucleosomes, 10 mM Tris-HCl pH 8.0, 130 mM NaCl, 10% glycerol, 0.005% Tween20, 10 min at 20 C; EMSA on 4% polyacrylamide, 0.3x TTE
Histone H1.x (human) = Histone H1.x (human) (UniProt Q92522); experiment: FRET; settings: AmC6dT at position 43; human octamer H2A(K119C), H2B, H3(C110A), H4; FRET/PIFE/EMSA: 5 nM nucleosomes, 10 mM Tris-HCl pH 8.0, 130 mM NaCl, 10% glycerol, 0.005% Tween20, 10 min at 20 C; EMSA on 4% polyacrylamide, 0.3x TTE
Histone H1.2 (human) = Histone H1.2 (human) (UniProt P16403); experiment: FRET; settings: AmC6dT at position 43; human octamer H2A(K119C), H2B, H3(C110A), H4; FRET/PIFE/EMSA: 5 nM nucleosomes, 10 mM Tris-HCl pH 8.0, 130 mM NaCl, 10% glycerol, 0.005% Tween20, 10 min at 20 C; EMSA on 4% polyacrylamide, 0.3x TTE
[3] = target: Cy3-Cy5 labelled unmodified nucleosome (Cy3-L DNA, Cy5 on H2A K119C) (human) (UniProt P0C0S8); experiment: other fluorescence titration; FRET efficiency between Cy3 on the DNA and Cy5 on the histone octamer (reports DNA wrapping) against H1 concentration; 5 nM nucleosomes, 0-300 nM H1, 10 mM Tris-HCl pH 8.0, 130 mM NaCl, 10% glycerol, 0.005% TWEEN20, 10 min at 20 C; Hill curve, S1/2; points of aggregated nucleosomes excluded
[4] = target: Cy3-Cy5 labelled H3K56Q nucleosome (Cy3-L DNA) (human) (UniProt P0C0S8); experiment: as above
[5] = target: Cy3-Cy5 labelled H3K56ac nucleosome (Cy3-L DNA) (UniProt P0C0S8); experiment: as above
[6] = target: Cy3-Cy5 labelled H3K122ac nucleosome (Cy3-L DNA) (UniProt P0C0S8); experiment: as above
[7] = target: Cy3 only labelled unmodified nucleosome (Cy3-L DNA, unlabelled histone octamer) (human) (UniProt P0C0S8); experiment: other fluorescence titration; PIFE (protein-induced fluorescence enhancement) of Cy3 on the linker DNA of Cy3 only nucleosomes; 5 nM nucleosomes, 0-300 nM H1 and/or 0-1,000 nM Gal4, 10 mM Tris-HCl pH 8.0, 130 mM NaCl, 10% glycerol, 0.005% TWEEN20, 10 min at 20 C; Hill curve, S1/2

Substance: AAGCTTGTCGACGAATTCAGATATAAGGAGGACACTGGGACATGCATCGGCTGGAGACCGGAGGGCTGCCCTCCGGTCAATTGGTCGTAGACAGCTCTAGCACCGCTTAAACGCACGTACGCGCTGTCCCCCGCGTTTTAACCGCCAAGGGGATTACTCCCTAGTCTCCAGGCACGTGTCAGATATATACATCCTGT (double strand) [Linker-L nucleosome]
K half (Histone H1.0 (human) [1]; AmC6dT at position 43, human octamer): 12 nM

Substance: AAGCTTGTCGACGAATTCAGATATAAGGAGGACACTGGGACATGCATCGGCTGGAGACCGGAGGGCTGCCCTCCGGTCAATTGGTCGTAGACAGCTCTAGCACCGCTTAAACGCACGTACGCGCTGTCCCCCGCGTTTTAACCGCCAAGGGGATTACTCCCTAGTCTCCAGGCACGTGTCAGATATATACATCCTGTATAATGCATAGGGCAGTGAGTTGACGCTACAATCACGAATTCTGGATCCGATACGTAACGCGTCTGCAGCATGCG (double strand) [Cy3-L nucleosome, unmodified, Cy3 only]
K half (Histone H1.0 (human) [2]): 13 nM

Substance: AAGCTTGTCGACGAATTCAGATATAAGGAGGACACTGGGACATGCATCGGCTGGAGACCGGAGGGCTGCCCTCCGGTCAATTGGTCGTAGACAGCTCTAGCACCGCTTAAACGCACGTACGCGCTGTCCCCCGCGTTTTAACCGCCAAGGGGATTACTCCCTAGTCTCCAGGCACGTGTCAGATATATACATCCTGTATAATGCATAGGGCAGTGAGTTGACGCTACAATCACGAATTCTGGATCCGATACGTAACGCGTCTGCAGCATGCG (double strand) [Cy3-L nucleosome, unmodified, Cy5-H2A(K119C)]
K half (Histone H1.x (human)): 13 nM
K half (Histone H1.2 (human)): 6 nM
K half (Histone H1.0 (human) [1]; AmC6dT at position 43, human octamer H2A(K119C), H2B, H3(C110A), H4): 9 nM

Substance: CTGGAGACCGGAGGGCTGCCCTCCGGTCAATTGGTCGTAGACAGCTCTAGCACCGCTTAAACGCACGTACGCGCTGTCCCCCGCGTTTTAACCGCCAAGGGGATTACTCCCTAGTCTCCAGGCACGTGTCAGATATATACATCCTGTATAATGCATAGGGCAGTGAGTTGACGCTACAATCACGAATTCTGGATCCGATACGTAACGCGTCTGCAGCATGCG (double strand) [Linker-R nucleosome]
K half (Histone H1.0 (human) [1]; smaller FRET change, 5' AminoC6, human octamer): 11 nM

S1/2 [3]: 9 nM
S1/2 [4]: 15 nM
S1/2 [5]: 14 nM
S1/2 [6]: 14 nM
S1/2 [7]: 13 nM
Substance: human linker histone H1.0 (from UniProt P07305 1-194) (natural protein)

S1/2 [3]: 6 nM
Substance: human linker histone H1.2, 6xHis tagged (from UniProt P16403 1-213) (natural protein)

S1/2 [3]: 13 nM
Substance: human linker histone H1.x, 6xHis tagged (from UniProt Q92522 1-213) (natural protein)
